Measured values reported in patent US8349583B2, “Distinguishing cells in a sample by inactivating extracellular enzyme before releasing intracellular enzyme” (priority 2005, dated 2013).

What was measured:
[1] = system: bacterial adenylate kinase; assay: AK reduction by different proteases over time for different organisms; format: biochemical; conditions: 37° C., 10 to 120 minutes; trypsin 1000, papain 10, proteinase K 2.5, chymotrypsin 1 U/ml
Description: • 1. Bacteria were scraped from plates and inoculated in approximately 20 ml of broth only. These were incubated overnight at 37° C. • 2. 10× stocks of the enzymes were prepared in broth only: • a. 10 mg of 16,000 U/mg Trypsin added to 16 ml of broth to give 10,000 U/ml (10×) stock. • b. 25 mg of 4 U/mg Papain added to 1 ml of broth to give 100 U/ml (10×) stock. • c. 10 mg of 7.5 U/mg proteinase K added to 3 ml of broth to give a 25 U/ml (10×) stock. • d. 10.5 ul of 239 U/ml chymotrypsin added to 239.5 ul of broth to give a 10 U/ml stock. • 3. The inoculums were then centrifuged at approximately 14030 RCF for one hour. • 4. The supernatant was then taken, tested for adenylate kinase activity (described below), and diluted with broth only if needed to give about 10^5 cpm/ml. • 5. The supernatant was then assayed for adenylate kinase activity at time point zero in triplicate and averaged. • 6. 1.5 ml solutions of the supernatants were prepared with the correct concentration of enzyme, or broth for control. These were incubated at 37° C. • 7. Samples were then taken and assayed in triplicate for adenylate kinase activity at 10, 30, 60 and 120 minutes. • 8. The triplicates were averaged, and normalised by dividing by the time point zero average. Adenylate Kinase Assay (AK Only No Cells) • 1. […] added to a cuvette. • 2. 50 μl of reagent 1 (ADP only; no lysis agent) added and vortexed briefly. • 3. After 5 minutes, the cuvette was placed into a luminometer. • 4. 50 μl of reagent 2 (dilution and luciferin/luciferase) firmly added directly to the sample. • 5. RLU read immediately.
The results are shown in FIG. 19 (S. epidermis), 20 (S. aureus), 21 (E. coli), 22 (E. faecalis), 23 (P. aeruginosa) and 24 (MRSA). Trypsin is still the protease of choice due to its consistency with both Gram +ve and Gram −ve bacteria.

[2] = system: lysed blood AK background; assay: Lysed blood background with trypsin, negative (no organisms); format: biochemical; conditions: 10^−1 lysed blood, 1000 U/ml trypsin
Description: (§1) Approximately 10^2 cfu/ml organisms were spiked into a 10^−1 dilution of lysed blood in MH, containing 1000 U/ml trypsin. This was incubated at 37° C. for 4 hours, and aliquots were assayed at time 0, 1, 2, 3 and 4 hours.

[3] = system: E. coli; assay: Trypsin digestion of intracellular bacterial AK, E. coli; format: cell-based; conditions: for Mean RLU: assayed immediately
Description: (§2) Experimental work used adenylate kinase-generated ATP to drive a luciferin/luciferase activity, giving results in RLUs as a quantitative measure of initial ATP levels. All AK assays were performed at pH 7.5, and 37° C. Results of the assay were read at ambient temperature.
(§3) Concentrations of 10^4 and 10^5 cfu/ml E. coli and E. faecalis where spiked into MH broth containing 1000, 200 and 0 (control) U/ml trypsin. These were assayed immediately.

[4] = system: organisms (11 species); assay: Effect of trypsin on organisms (bacterial growth); format: cell-based; conditions: trypsin 1000 and 200 U/ml, 10^3 cfu/ml, 37° C., 3 hours
Description: FIGS. 4 to 14 show bacterial growth in the presence of AK. Bacteria were: (4) E. coli; (5) E. faecalis; (6) P. aeruginosa; (7) S. aureus; (8) K. pneumoniae; (9) E. cloacae; (10) K. oxytoca; (11) P. vulgaris; (12) A. baumanii; (13) S. enteritidis; and (14) S. narcescens.
To assess whether trypsin affects bacterial growth, 10^3 cfu/ml organisms were spiked into 1000, 200 and 0 (control) U/ml trypsin/MH samples. These mixtures were incubated at 37° C. for 3 hours, and aliquots were assayed at time 0, 1, 2 and 3 hours.

[5] = system: P. aeruginosa; assay: Organism growth against lysed blood background using trypsin, P. aeruginosa; format: cell-based; conditions: P. aeruginosa 10^2 cfu/ml, 10^−1 lysed blood, 1000 U/ml trypsin
Description: as §1

[6] = system: AK in lysed blood; assay: AK reduction by trypsin over time, saponin-lysed blood; format: biochemical; conditions: 10^−3 dilution of lysed blood, 5000, 1000, 200 U/ml trypsin, 37° C., up to 1 hour
Description: (§4) Purified AK (B. stearothermophilus) or a 10^−3 dilution of saponin-lysed blood was incubated for 1 hour at 37° C. in 5000, 1000, 200 and 0 (control) U/ml trypsin diluted in MH broth (‘trypsin/MH’). Aliquots were assayed at time 0, 15 minutes, 30 minutes and 1 hour.

[7] = molecular target: Purified AK (B. stearothermophilus) (Geobacillus stearothermophilus, UniProt P27142); assay: AK reduction by trypsin over time, purified bacterial AK; format: biochemical; conditions: 5000, 1000, 200 U/ml trypsin, 37° C., up to 1 hour; compared with lysed blood AK
Description: as §4

[8] = system: AK in saponin-lysed blood; assay: Trypsin digestion of AK in various concentrations of lysed blood; format: biochemical; conditions: 1000 U/ml trypsin
Description: Saponin-lysed blood was serially diluted and mixed with 1000 or 200 U/ml trypsin/MH. The mixtures were incubated at 37° C. for 4 hours, and aliquots assayed at time 0, 1, 2, 3 and 4 hours.

[9] = system: E. faecalis; assay: Trypsin digestion of intracellular bacterial AK, E. faecalis; format: cell-based; conditions: assayed immediately
Description: as §2, §3

[10] = system: E. coli; assay: Organism growth against lysed blood background using trypsin, E. coli; format: cell-based; conditions: E. coli 10^2 cfu/ml, 10^−1 lysed blood, 1000 U/ml trypsin
Description: as §1

[11] = molecular target: bioluminescent system (luciferin/luciferase) (Photinus pyralis, UniProt P08659); assay: Trypsin control: effect of trypsin on the bioluminescent system; format: biochemical
Description: as §2
In preliminary experiments, the effect of trypsin on the bioluminescent system was assessed. Samples of trypsin at different concentrations, diluted in Mueller-Hinton (MH^+) broth, were spiked with ATP.

[12] = system: E. faecalis; assay: Organism growth against lysed blood background using trypsin, E. faecalis; format: cell-based; conditions: E. faecalis 10^2 cfu/ml, 10^−1 lysed blood, 1000 U/ml trypsin
Description: as §1

Chain of bioluminescent system (luciferin/luciferase) (P08659 whole entry): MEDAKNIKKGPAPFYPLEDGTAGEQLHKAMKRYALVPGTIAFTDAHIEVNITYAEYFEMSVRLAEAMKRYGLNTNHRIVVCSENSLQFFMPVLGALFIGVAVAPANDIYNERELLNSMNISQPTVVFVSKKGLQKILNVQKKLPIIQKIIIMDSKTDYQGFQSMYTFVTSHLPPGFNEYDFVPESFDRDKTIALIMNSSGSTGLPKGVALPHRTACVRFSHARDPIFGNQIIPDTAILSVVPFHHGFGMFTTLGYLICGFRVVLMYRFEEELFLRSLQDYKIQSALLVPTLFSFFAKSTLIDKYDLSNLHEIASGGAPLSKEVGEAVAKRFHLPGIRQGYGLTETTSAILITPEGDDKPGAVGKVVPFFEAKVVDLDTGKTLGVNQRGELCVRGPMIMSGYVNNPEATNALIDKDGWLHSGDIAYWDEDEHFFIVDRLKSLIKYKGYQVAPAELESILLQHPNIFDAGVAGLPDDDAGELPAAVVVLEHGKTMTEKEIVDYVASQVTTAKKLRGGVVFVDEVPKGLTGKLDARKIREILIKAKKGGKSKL
Chain of Purified AK (B. stearothermophilus) (P27142 whole entry): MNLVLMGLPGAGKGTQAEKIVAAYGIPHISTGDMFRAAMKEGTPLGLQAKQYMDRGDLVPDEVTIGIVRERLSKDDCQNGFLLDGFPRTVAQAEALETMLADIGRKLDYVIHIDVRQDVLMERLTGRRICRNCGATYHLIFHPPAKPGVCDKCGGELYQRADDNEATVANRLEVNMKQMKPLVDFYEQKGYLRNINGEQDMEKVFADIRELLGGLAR

B1: Papain (protein, UniProt P00784 134-345, looked up)
Papain: IPEYVDWRQKGAVTPVKNQGSCGSCWAFSAVVTIEGIIKIRTGNLNEYSEQELLDCDRRSYGCNGGYPWSALQLVAQYGIHYRNTYPYEGVQRYCRSREKGPYAAKTDGVRQVQPYNEGALLYSIANQPVSVVLEAAGKDFQLYRGGIFVGPCGNKVDHAVAAVGYGPNYILIKNSWGTGWGENGYIRIKRGTGNSYGVCGLYTSSFYPVKN
notes: protease, 4 U/mg, used at 10 U/ml
- degradation of AK extracted from different organisms [1]: degraded the AK in a similar manner to trypsin

B2: proteinase K (protein, UniProt P06873 106-384, looked up)
Proteinase K: AAQTNAPWGLARISSTSPGTSTYYYDESAGQGSCVYVIDTGIEASHPEFEGRAQMVKTYYYSSRDGNGHGTHCAGTVGSRTYGVAKKTQLFGVKVLDDNGSGQYSTIIAGMDFVASDKNNRNCPKGVVASLSLGGGYSSSVNSAAARLQSSGVMVAVAAGNNNADARNYSPASEPSVCTVGASDRYDRRSSFSNYGSVLDIFGPGTSILSTWIGGSTRSISGTSMATPHVAGLAAYLMTLGKTTAASACRYIADTANKGDLSNIPFGTVNLLAYNNYQA
notes: protease, 7.5 U/mg, used at 2.5 U/ml
- degradation of AK extracted from different organisms [1]: degraded the AK in a similar manner to trypsin

B3: trypsin (protein, UniProt P00761 9-231, looked up)
Trypsin: IVGGYTCAANSIPYQVSLNSGSHFCGGSLINSQWVVSAAHCYKSRIQVRLGEHNIDVLEGNEQFINAAKIITHPNFNGNTLDNDIMLIKLSSPATLNSRVATVSLPRSCAAAGTECLISGWGNTKSSGSSYPSLLQCLKAPVLSDSSCKSSYPGQITGNMICVGFLEGGKDSCQGDSGGPVVCNGQLQGIVSWGYGCAQKNKPGVYTKVCNYVNWIQQTIAAN
- Mean RLU ([2]; 1 hr): 7,864 RLU
- Mean RLU ([2]; 2 hrs): 3,148 RLU
- Mean RLU ([2]; 3 hrs): 2,001 RLU
- Mean RLU ([2]; 4 hrs): 1,572 RLU
- Mean RLU ([2]; Time 0): overload
- Mean RLU ([3]; E. coli 10^4 cfu/ml, trypsin 200 U/ml): 7,197 RLU
- Mean RLU ([3]; E. coli 10^4 cfu/ml, trypsin 1000 U/ml): 12,694 RLU
- Mean RLU ([3]; E. coli 10^5 cfu/ml, trypsin 200 U/ml): 65,452 RLU
- Mean RLU ([3]; E. coli 10^5 cfu/ml, trypsin 1000 U/ml): 106,552 RLU
- AK signal from lysed bacteria lost during the AK reaction due to trypsin digestion ([3]; E. coli and E. faecalis, trypsin 200 and 1000 U/ml): 10-20%
- effect on bacterial growth [4]: minimal (if any) effect on the organisms
- Mean RLU ([5]; 1 hr): 8,852 RLU
- Mean RLU ([5]; 2 hrs): 3,582 RLU
- Mean RLU ([5]; 3 hrs): 3,332 RLU
- Mean RLU ([5]; 4 hrs): 8,123 RLU
- Mean RLU ([5]; Time 0): overload
- digestion of AK in lysed blood by trypsin [6]: digested rapidly
- degradation of purified bacterial AK by trypsin [7]: does not occur as dramatically or rapidly as the AK from lysed blood
- degradation of AK extracted from different organisms [1]: degraded the AK
- reduction of background ([8]; 10^−1 dilution of blood, 4 hours): 25,000 fold
- background RLU after trypsin digestion ([8]; 10^−1 dilution of blood, 4 hours, from approximately 100 million RLU): 4,000 RLU
- time in which the vast majority of AK digestion occurs [8]: ≤ 2 h
- Mean RLU ([9]; E. faecalis 10^4 cfu/ml, trypsin 200 U/ml): 13,310 RLU
- Mean RLU ([9]; E. faecalis 10^4 cfu/ml, trypsin 1000 U/ml): 17,369 RLU
- Mean RLU ([9]; E. faecalis 10^5 cfu/ml, trypsin 200 U/ml): 87,059 RLU
- Mean RLU ([9]; E. faecalis 10^5 cfu/ml, trypsin 1000 U/ml): 103,959 RLU
- Mean RLU ([10]; 1 hr): 9,605 RLU
- Mean RLU ([10]; 2 hrs): 7,460 RLU
- Mean RLU ([10]; 3 hrs): 41,121 RLU
- Mean RLU ([10]; 4 hrs): 353,541 RLU
- Mean RLU ([10]; Time 0): overload
- Mean RLU ([11]; +ATP, trypsin 200 U/ml in MH broth): 68,036 RLU
- Mean RLU ([11]; +ATP, trypsin 1000 U/ml in MH broth): 64,005 RLU
- Mean RLU ([11]; +ATP, trypsin 5000 U/ml in MH broth): 81,276 RLU
- Mean RLU ([11]; No ATP, trypsin 200 U/ml in MH broth): 646 RLU
- Mean RLU ([11]; No ATP, trypsin 1000 U/ml in MH broth): 538 RLU
- Mean RLU ([11]; No ATP, trypsin 5000 U/ml in MH broth): 414 RLU
- background ATP-generating activity associated with trypsin ([11]; no ATP): little or no background ATP-generating activity
- effect on bioluminescence signal ([11]; trypsin 5000 U/ml): boosted
- effect on the bioluminescence reaction ([11]; trypsin levels ≦1000 U/ml): minimal/no effect on the bioluminescence reaction
- Mean RLU ([12]; 1 hr): 10,099 RLU
- Mean RLU ([12]; 2 hrs): 4,939 RLU
- Mean RLU ([12]; 3 hrs): 15,587 RLU
- Mean RLU ([12]; 4 hrs): 106,762 RLU
- Mean RLU ([12]; Time 0): overload
